This is an account of results in the DeepSol protein solubility set.

The series in a line: soluble on expression in E. coli; label from the status in PepcDB or PDB records.
Take “MGSDKIHHHHHHMNIIPYRVTLLEPLLATRIAGDPNSGVSYPYVPGSLVRGAAVAMYARNKGIVAVDAREEEARRLFFDGRTRYLNAYPADASGRRTLPTPRSLFHVEGEESPIYDFALEVIDAVNEETVQFVGAARDSQPFCRIDDSNIFFISPKRRINVHTQRDRVKGRATEVSGAVFQYDALEEGQTFAGWVLVDKDDDVELLSSLLRHIYRLGGSSNSGYGRVTVAVDAPQNIQVWREIPKQIVPIDAGETFVVTLLSDTLVRDPNTGQYTWDLRPALQQLLSVEIEHIHPIAGEEEQRSVWRLDEVGGFNRAWGLPLPQAQAIAGGSVFVFRARSPIPAQTIAGAEWDGIGERRAEGFGRLAFNWQTETELIRVDPPVVSLIDQLVPNLDGPARNIAQQMAMRMLRRELDAKLRKAINDIRPKHLSISNTQLSRLRIIAREALPNGDLARLQKYLDENIKTRRSVRDQFDRTRLGSEERLSQWLEERLSQPETVWDKIGAQTLSKRIGANVLVSTRDDTELAREYTIRLIDGVLARLAKERRREDGGRQ”: the “soluble on expression in E. coli” value is “not soluble”. The entry for “VRGLPRAKKLEKLGVFSACKANGTCKCNGWKNPKPPTAPRIDLQQPAANLSELCRSCEHPLADHVSHLENVSEDEINRLLGMVVDVENLFMSVHKEEDTDTKQVYFYLFKLLRKCILQMTRPVVEGSLGSPPFEKPNIEQGVLNFVQYKFSHLAPRERQTMFELSKMFLLCLNYWELETPAQFRQRSQAEDVATYKVNYTRWLCYCHVPQSCDSLPRYETTHVFGRS” is “soluble”; for “MADKSAYMSAGGYGSGYMGANASSSGYAREDYAQGGAGGSGNQNQGGSGGNTNPGGQVFKARTDQSCYLGP” it is “not soluble”; for “MGSRENLYFQGLEHHHHHHHMKNVKTLIAAAILSSMSFASFAAVEVQSTPEGQQKVGTISANAGTNLGSLEEQLAQKADEMGAKSFRITSVTGPNTLHGTAVIYK” it is “soluble”. Take “MKYQAAIFDMDGLLLDTERVCMRIFQEACEVQNLPFYEDVYLSIIGRNAAGIETIFRKAYGENLDRLHLEWRTRYNAVVKHQAIP”: the “soluble on expression in E. coli” value is reported as “not soluble”. The result for “MKESLLTLTEKIMFTTTVLKPTITTPITMLITTMRTLVAMKIRHYWKMMAIKDRKIQIPPVKYQMELSIRTLEINLLKNVKETEANLLKRRTDRENKRHYEFGFFYNLRIHNIYIPTSFFFFNSIV” reads “soluble”; that for “MSLSEYRRKRSFDKTREPEPGKTLPPGQRAIFVVQLHHASRRHYDFRLQVGDALKSWAVPKGPSYDPKVKRMAVEVEDHPVDYASFEGEIPRGEYGGGHVAQFDHGVWATAGDPEAQLAKGHLRFELFGNKLKGGWHLVRSGKPARQPQWLLFKEDDAYAGLEHHHHHH”, “soluble”; that for “MSLTFCYPCRAFALLTRGFTSFMSGWPRIYYKLLNLPLSILVKSKSIPADPAPELGLDTSRPIMYVLPYNSKADLLTLRAQCLAHDLPDPLEPLEIDGTLLPRYVFIHGGPRVFTYYTPKEESIKLFHDYLDLHRSNPNLDVQMVPVSVMFGRAPGREKGEVNPPLRMLNGVQKFFAVLWLGRDSFVRFSPSVSLRRMADEHGTDKTIAQKLARVARMHFARQRLAAVGPRLPARQDLFNKLLASRAIAKAVEDEARSKKISHEKAQQNAIALMEEIAANFSYEMIRLTDRILGFTWNRLYQGINVHNAERVRQLAHDGHELVYVPCHRSHMDYLLLSYVLYHQGLVPPHIAAGINLNFWPAGPIFRRLGAFFIRRTFKGNKLYSTVFREYLGELFSRGYSVEYFVEGGRSRTGRLLDPKTGTLSMTIQAMLRGGTRPITLIPIYIGYEHVMEVGTYAKELRGATKEKESLPQMLRGLSKLRNLGQGYVNFGEPMPLMTYLNQHVPDWRESIDPIEAVRPAWLTPTVNNIAADLMVRINNAGAANAMNLCCTALLASRQRSLTREQLTEQLNCYLDLMRNVPYSTDSTVPSASASELIDHALQMNKFEVEKDTIGDIIILPREQAVLMTYYRNNIAHMLVLPSLMAAIVTQHRHISRDVLMEHVNVLYPMLKAELFLRWDRDELPDVIDALANEMQRQGLITLQDDELHINPVHSRTLQLLAAGARETLQRYAITFWLLSANPSINRGTLEKESRTVAQRLSVLHGINAPEFFDKAVFSSLVLTLRDEGYISDSGDAEPAETMKVYQLLAELITSDVRLTIESATQGEEGHHHHHH”, “soluble”.
